Laboratory results as given in the supplement of paper PMC10201428.
± gives the standard deviation of the averaged measurements.

B1: library; a variant is named by its letters at N, in order (parent)
chain: AATGTTGTTGATGCAACCATAAAGTGATATTTAATAATTATTTATAATCAGCAACTTAACCACAAAACAACCATATATTGATATNTCACAAAACAACCATAANTTGATATTTTTGTGAATCGAGTATTTCAGCAAAACTACTGCAGTAAGAA

Assays:
[1] = variants of: B1; assay: relative integration efficiency (T-LR orientation) vs wild-type transposon end (log2 (normalized fold change)); transposon end mutated: left end; higher = more efficient transposition; settings: with VchCAST RNA-guided transposition machinery (E. coli BL21(DE3) host, lacZ target)
How it was run: (§1)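 Barcoded pools of 1549 left-end or 1849 right-end transposon variants were cloned into a pUC57 mini-transposon donor. Each pool was co-transformed with a T7-driven effector plasmid (CRISPR array, tniQ-cas8-cas7-cas6, tnsA-tnsB-tnsC) into E. coli BL21(DE3) and plated with 0.1 mM IPTG at 37°C for 18 h. Input plasmids and genomic integration junctions were PCR-amplified and Illumina-sequenced, with two biological output replicates and four wild-type barcodes as reference. Relative integration efficiency is output/input barcode abundance fold change, normalised to wild-type barcodes and log-transformed.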

[2] = variants of: B1; assay: relative integration efficiency (T-RL orientation) vs wild-type transposon end (log2 (normalized fold change)); transposon end mutated: left end; higher = more efficient transposition; settings: with VchCAST RNA-guided transposition machinery (E. coli BL21(DE3) host, lacZ target)
How it was run: as §1

CG T12A G13C
relative integration efficiency (log2) [1]: 0.233 ± 0.21
relative integration efficiency (log2) [2]: -0.107 ± 0.067

CG T12A G13C C14G A15T
relative integration efficiency (log2) [1]: -0.874 ± 0.76
relative integration efficiency (log2) [2]: -0.341 ± 0.43

CG T12A T30A T31C T32A A77C T86G
relative integration efficiency (log2) [1]: -0.709 ± 0.52
relative integration efficiency (log2) [2]: -0.451 ± 0.25

CG T12C
relative integration efficiency (log2) [1]: -0.943 ± 0.57
relative integration efficiency (log2) [2]: -0.0642 ± 0.048

CG T12G
relative integration efficiency (log2) [1]: -0.01 ± 0.2
relative integration efficiency (log2) [2]: -0.917 ± 0.57

CG T12G G13T
relative integration efficiency (log2) [1]: -0.641 ± 0.4
relative integration efficiency (log2) [2]: -0.29 ± 0.15

CG T12G G13T C14A A15C
relative integration efficiency (log2) [1]: -0.59 ± 0.54
relative integration efficiency (log2) [2]: -0.224 ± 0.3

CG T20A
relative integration efficiency (log2) [1]: -0.647 ± 0.083
relative integration efficiency (log2) [2]: -0.343 ± 0.17

CG T20A A21T
relative integration efficiency (log2) [1]: -0.406 ± 0.45
relative integration efficiency (log2) [2]: -0.483 ± 0.31

CG T20A A21T A22T A23T
relative integration efficiency (log2) [1]: -0.732 ± 0.16
relative integration efficiency (log2) [2]: -0.758 ± 0.34

CG T20A T74A T100A
relative integration efficiency (log2) [1]: -1.01 ± 0.38
relative integration efficiency (log2) [2]: -1.12 ± 0.54

CG T20C
relative integration efficiency (log2) [1]: -1.08 ± 0.45
relative integration efficiency (log2) [2]: -1.07 ± 0.49

CG T20G
relative integration efficiency (log2) [1]: -0.668 ± 0.64
relative integration efficiency (log2) [2]: -0.834 ± 0.6

CG T20G A21C
relative integration efficiency (log2) [1]: -2.47 ± 0.87
relative integration efficiency (log2) [2]: -2.18 ± 0.77

CG T20G A21C A22C A23C
relative integration efficiency (log2) [1]: -2.4 ± 0.83
relative integration efficiency (log2) [2]: -3.18 ± 0.88

CG T25A
relative integration efficiency (log2) [1]: -0.158 ± 0.68
relative integration efficiency (log2) [2]: -0.346 ± 0.3

CG T25A G26C
relative integration efficiency (log2) [1]: -1.33 ± 1.5
relative integration efficiency (log2) [2]: -1.73 ± 0.85

CG T25A G26C A27T T28A
relative integration efficiency (log2) [1]: -2.09 ± 0.86
relative integration efficiency (log2) [2]: -2.28 ± 0.71

CG T25A T79A T105A
relative integration efficiency (log2) [1]: -3.4 ± 0.079
relative integration efficiency (log2) [2]: -1.88 ± 0.86

CG T25C
relative integration efficiency (log2) [1]: 0.0625 ± 0.14
relative integration efficiency (log2) [2]: -0.137 ± 0.12

CG T25G
relative integration efficiency (log2) [1]: -0.618 ± 1
relative integration efficiency (log2) [2]: -0.455 ± 0.37

CG T25G G26T
relative integration efficiency (log2) [1]: -0.611 ± 0.7
relative integration efficiency (log2) [2]: -0.737 ± 0.33

CG T25G G26T A27C T28G
relative integration efficiency (log2) [1]: -2.73 ± 1.1
relative integration efficiency (log2) [2]: -2.55 ± 0.99

CG T25G T79G T105G
relative integration efficiency (log2) [1]: -3.03 ± 1.7
relative integration efficiency (log2) [2]: -2.73 ± 1.2

CG T28A
relative integration efficiency (log2) [1]: -0.399 ± 0.64
relative integration efficiency (log2) [2]: -0.37 ± 0.28

CG T28A A29T
relative integration efficiency (log2) [1]: -0.0554 ± 0.23
relative integration efficiency (log2) [2]: -0.309 ± 0.44

CG T28A A29T T30A T31A
relative integration efficiency (log2) [1]: -0.974 ± 0.69
relative integration efficiency (log2) [2]: -1.12 ± 0.46

CG T28A T82A T108A
relative integration efficiency (log2) [1]: -2.22 ± 2.1
relative integration efficiency (log2) [2]: -1.09 ± 0.57

CG T28C
relative integration efficiency (log2) [1]: -0.0735 ± 0.44
relative integration efficiency (log2) [2]: -0.273 ± 0.15

CG T28G
relative integration efficiency (log2) [1]: -0.845 ± 0.19
relative integration efficiency (log2) [2]: -0.536 ± 0.28

CG T28G A29C
relative integration efficiency (log2) [1]: -1.26 ± 0.97
relative integration efficiency (log2) [2]: -1.24 ± 0.55

CG T28G A29C T30G T31G
relative integration efficiency (log2) [1]: -2.32 ± 0.87
relative integration efficiency (log2) [2]: -1.98 ± 0.8

CG T28G T82G T108G
relative integration efficiency (log2) [1]: -3.23 ± 3.2
relative integration efficiency (log2) [2]: -2.28 ± 0.9

CG T30A
relative integration efficiency (log2) [1]: 0.497 ± 0.092
relative integration efficiency (log2) [2]: 0.256 ± 0.046

CG T30A T31A
relative integration efficiency (log2) [1]: 0.174 ± 0.14
relative integration efficiency (log2) [2]: 0.109 ± 0.27

CG T30A T31A T32A A33T
relative integration efficiency (log2) [1]: -0.351 ± 0.54
relative integration efficiency (log2) [2]: -0.346 ± 0.29

GG T30A T31A T32A A33T T84A T86A C87G T110A T111A T112A T113A
relative integration efficiency (log2) [1]: -1.77 ± 2.3
relative integration efficiency (log2) [2]: -1.15 ± 0.64

CG T30A T31C A77C
relative integration efficiency (log2) [1]: -0.793 ± 0.14
relative integration efficiency (log2) [2]: -0.48 ± 0.16

CG T30A T31C T32A
relative integration efficiency (log2) [1]: -0.303 ± 0.45
relative integration efficiency (log2) [2]: -0.29 ± 0.22

CG T30A T31C T32A A77C T86G
relative integration efficiency (log2) [1]: 0.153 ± 0.44
relative integration efficiency (log2) [2]: 0.116 ± 0.27

CG T30A T84A T110A
relative integration efficiency (log2) [1]: -0.322 ± 0.51
relative integration efficiency (log2) [2]: -0.403 ± 0.24

CG T30C
relative integration efficiency (log2) [1]: 0.128 ± 0.19
relative integration efficiency (log2) [2]: 0.0623 ± 0.096

CG T30G
relative integration efficiency (log2) [1]: -0.765 ± 0.6
relative integration efficiency (log2) [2]: -0.614 ± 0.37

CG T30G T31G
relative integration efficiency (log2) [1]: -1.56 ± 0.31
relative integration efficiency (log2) [2]: -0.964 ± 0.45

CG T30G T31G T32G A33C
relative integration efficiency (log2) [1]: -1.21 ± 0.73
relative integration efficiency (log2) [2]: -1.06 ± 0.5

AG T30G T31G T32G A33C T84G T86G C87A T110G T111G T112G T113G
relative integration efficiency (log2) [1]: -2.2 ± 1.2
relative integration efficiency (log2) [2]: -2.54 ± 0.82

CG T30G T84G T110G
relative integration efficiency (log2) [1]: -2.2 ± 0.51
relative integration efficiency (log2) [2]: -1.92 ± 0.8

CG T31A
relative integration efficiency (log2) [1]: 0.0948 ± 0.84
relative integration efficiency (log2) [2]: -0.128 ± 0.14

CG T31A T32A
relative integration efficiency (log2) [1]: -0.442 ± 0.33
relative integration efficiency (log2) [2]: -0.131 ± 0.028

CG T31A T32A A33T A34T
relative integration efficiency (log2) [1]: 0.0738 ± 0.43
relative integration efficiency (log2) [2]: -0.0923 ± 0.16

GG T31A T32A A33T T86A C87G T111A T112A T113A
relative integration efficiency (log2) [1]: -0.524 ± 0.35
relative integration efficiency (log2) [2]: -0.495 ± 0.72

GG T31A T111A
relative integration efficiency (log2) [1]: -0.483 ± 0.67
relative integration efficiency (log2) [2]: -0.581 ± 0.56

CG T31C
relative integration efficiency (log2) [1]: 0.331 ± 0.47
relative integration efficiency (log2) [2]: -0.0756 ± 0.17

CG T31G
relative integration efficiency (log2) [1]: -0.35 ± 0.1
relative integration efficiency (log2) [2]: -0.221 ± 0.21

CG T31G T32G
relative integration efficiency (log2) [1]: -0.16 ± 0.58
relative integration efficiency (log2) [2]: -0.225 ± 0.34

CG T31G T32G A33C A34C
relative integration efficiency (log2) [1]: -0.805 ± 0.2
relative integration efficiency (log2) [2]: -0.592 ± 0.32

AG T31G T32G A33C T86G C87A T111G T112G T113G
relative integration efficiency (log2) [1]: -1.26 ± 0.48
relative integration efficiency (log2) [2]: -1.07 ± 0.49

AG T31G T111G
relative integration efficiency (log2) [1]: -0.732 ± 0.38
relative integration efficiency (log2) [2]: -0.99 ± 0.44
